# In US5175251A, “Antimetastatic peptides with laminin activity” (SRI International, priority 1991, dated 1992):
# How the values were obtained:
# [1] = system: B16/F10 cells (murine melanoma); assay: Cell adhesion assay: tumor cells bound to peptide-coated wells; assay type: cell-based; settings: summary of Table 1
# Description: The cell-adhesion assay measures the binding of tumor cells to laminin immobilized on the surface of a culture dish. The peptides of the invention can be substituted for the immobilized laminin to measure the binding constants of the peptides and compare binding constants of the peptides of the invention with laminin or other known laminin peptides. In this assay, solubilized peptides are incubated on tissue culture well plates and nonspecific cell binding is blocked by the addition of bovine serum albumin (BSA). Tumor cells are added to the wells and nonadherent cells are removed by washing with phosphate-buffered saline (PBS). Attached cells may be trypsinized and counted electronically or the cells may be fixed, stained with chemical agents, such as crystal violet solution and the optical density of the solutions determined using a microtiter plate reader in the range from 590-405 nm. Extrapolation of OD to the number of cells bound may be obtained by comparison of readings to a standard curve obtained by incubating various numbers of cells in tissue culture wells for a time sufficient to allow firm attachment but not permit significant cell division (about 5 h), and washing and staining as above. […]
# [2] = Isoelectric point; assay type: physicochemical
# Source text: The anion exchange resin is usually employed in the form of a packed column. The column is equilibrated using conventional techniques and the solution of the cleaved reaction products is loaded onto the column. […] The peptide is eluted by increasing the ionic strength of the buffered solution, typically from 0 to 0.75M NaCl. The column can be regenerated by washing with solutions of NaOH and nonionic detergents to remove any residual contaminating protein or solubilizing agents and equilibrating the column.
# For example, when the laminin B1 peptide is fused to CTAP-III(Leu21), an anion exchange column (for example, either Mono-Q or Q Sepharose from Pharmacia) may be employed to separate the two proteins on the basis of differences in their isoelectric points (LamB1 -40(Ser27) peptide=3.65, CTAP-III=7.8). […] Elution of the peptide may be performed with a linear gradient (0 to 0.5M) of NaCl. Pooled fractions of LamB1 -40, typically greater than 90% pure, may optionally be subjected to further purification using hydrophobic interaction chromatography (HIC), gel filtration chromatography, reverse-phase liquid chromatography or combinations thereof.
Molecule,Binding of metastatic tumor cells compared with YIGSR or CDPGYIGSR [1],isoelectric point (pI) [2]
"NH2 -Pro-Cys-Pro-Asp-Gly-Pro-Asp-Ser-Gly-Arg-Gln-Phe-Ala-Arg-Ser-Cys-Tyr -Gln-Asp-Pro-Val-Thr-Leu-Gln-Leu-Ala-Ser-Val-Cys-Asp-Pro-Gly-Tyr-Ile-Gly-Ser-Arg-Cys-Asp-Asp-OH (H-PCPDGPDSGRQFARSCYQDPVTLQLASVCDPGYIGSRCDD-OH; cysteine pairing not given here) [LamB1 -40(Ser27), recombinant 40 amino acid laminin B1 peptide, Cys at position 923 replaced with serine]",binds metastatic tumor cells more effectively,3.65
"CTAP-III: naturally occurring polypeptide isolated from human platelets that is capable of activating connective tissue cells (protein, UniProt P02775 44-128, looked up, Connective tissue-activating peptide III) Connective tissue-activating …: NLAKGKEESLDSDLYAELRCMCIKTTSGIHPKNIQSLEVIGKGTHCNQVEVIATLKDGRKICLDPDAPRIKKIVQKKLAGDESAD",–,7.8
